Assay results: patent publication US5444041A, “Convertible microemulsion formulations” (Ibah, Inc., priority 1992, dated 1995)

What was measured:
[1] = Percent activity of horseradish peroxidase (OPD assay, 492 nm) after storage at 50° C.; format: physicochemical
Protocol: In Example 10, the protein horseradish peroxidase (HRP), was stored for given times and temperatures, then assayed in vitro, as shown in this example.
After storage for the specified time at 50° C., the microemulsion was then converted to an o/w emulsion by the addition of water. This was achieved by pipetting 30 μL of the microemulsion containing the horseradish peroxidase enzyme into 970 μL of 0.9 wt. % saline (NaCl) solution.
After conversion, the emulsion was then assayed for activity. This activity was compared with the activity of stock solutions of HRP which had been maintained at 50° C. for the same time and then pipetted into saline (30 μL into 970 μL of saline) in the same manner as the microemulsion above. The stock HRP was first diluted to the same HRP concentration as in the aqueous phase of the converted microemulsion.
The assay was carried out as follows:
1. Set spectrophotometer at 492 nm and 25° C.
2. Into the cuvette, pipet 2.97 mL OPD (O-phenylene diamine) buffer solution (1 tab.→26 mL)
3. Establish blank at 492 nm.
4. Into the cuvette, pipet 25 μL diluted control HRP solution. Mix and record the increase in absorbance at 492 nm for 5 minutes.
5. Same procedure is followed for microemulsion w/HRP solution. OPD=O-phenylene diamine
Percent activity was determined by using the following equation: [formula]

[2] = rat, in vivo
Protocol: A series of experiments was carried out using rats with the w/o microemulsion of this invention to evaluate them as a vehicle for the delivery of the human growth hormone, hGH. The body fluids of the rats served to convert the microemulsion to an o/w emulsion which activated the drug and promoted drug uptake across the mucosal membrane of the rat colon.
The rats were approximately 100 grams and were fasted for 24 hours prior to testing.
The injected group, Group C, received the extracted hGH in a buffer solution at the human equivalent dose of 0.05 mg/kg body weight. The two rectal administration groups, Groups A and B, received ten times the human equivalent dose.
The rats were anaesthetized just prior to dosing. Suppositories (Group A) and the buffer solution (Group B) administered rectally were sealed in the rectum by a plug and liquid cement. Group C animals were injected subcutaneously (SQ). After administering the dosage, serum hGH levels were determined at 30, 60, 120, 180, 240, and 300 minutes. […] The blood was centrifuged and the serum assayed by hGH ELISA (Medix Lab, Foster City, Calif.) for quantitation of the extracted growth hormone.
The AUC (area under the curve) for both routes of administration was determined using the trapezoid rule (M. Gibaldi, Biopharmaceutics and Clinical Pharmacokinetics, Lea and Febiger, Philadelphia, Pa., 1984, pp. 315-16). […]

Spraque-Dawley rats = assay: Rectal instillation of calcitonin microemulsions, serum Ca+2 in rats; format: in vivo, rat
Protocol: A series of experiments was carried out in rats using the w/o microemulsions of this invention to evaluate them as a vehicle for the rectal delivery of the peptide calcitonin, (used in the treatment of hypercalcemia by lowering Ca++ serum levels), whereby the body fluids of the rat would serve to convert the microemulsion to an o/w emulsion and thus release the calcitonin.
Formulations were produced which ranged from 3% to 15% (v/v) aqueous phase and which ranged from liquids to gels at room temperature. The formulations contained, in addition to the aqueous phase, one to three oils and a blend of two emulsifiers. […] Three formulations with different oil blends were chosen for biological evaluation in juvenile, male rat model (Spraque-Dawley rats; 140-170 gm).
Three w/o microemulsion formulations were tested which contained 3% v/v aqueous phase volume, and varying amounts of calcitonin/ml of emulsion. Two, Formulations A and B below, were formulated as liquids; the third microemulsion (Formulation C) was formulated in semi-solid (suppository) form by addition of a high-melting coconut oil to the microemulsion. […]
Serum was prepared from each blood sample and serum Ca^+2 (free ionized calcium) levels were determined using a Beckman calcium clinical assay kit.

horseradish peroxidase [Control HRP]
% Activity ([1]; Time 0 hours, converted with saline before assay): 100%
% Activity ([1]; Time 3 hours): 76%
% Activity ([1]; Time 6 hours): 73%
% Activity ([1]; Time 24 hours): 20%
% Activity ([1]; Time 27 hours): 20%
% Activity ([1]; Time 48 hours): 11%

human growth hormone [Group C]
AUC (area under the curve), trapezoid rule [2]: approximately 24.5 ng-hr/ml

calcitonin [Saline]
serum calcium response to rectal administration (in words) (Spraque-Dawley rats): no significant response

human growth hormone [hGH in buffer]
uptake of the drug [2]: no uptake of the drug
